Source: article PMC10198636 (Science Advances, 2023)

Target: Cul3(N), recombinant N-terminal domain of human Cul3 (human, UniProt Q13618 1-417)
Test: ITC

Chain of Cul3(N), recombinant N-terminal domain of human Cul3 (Q13618 1-417): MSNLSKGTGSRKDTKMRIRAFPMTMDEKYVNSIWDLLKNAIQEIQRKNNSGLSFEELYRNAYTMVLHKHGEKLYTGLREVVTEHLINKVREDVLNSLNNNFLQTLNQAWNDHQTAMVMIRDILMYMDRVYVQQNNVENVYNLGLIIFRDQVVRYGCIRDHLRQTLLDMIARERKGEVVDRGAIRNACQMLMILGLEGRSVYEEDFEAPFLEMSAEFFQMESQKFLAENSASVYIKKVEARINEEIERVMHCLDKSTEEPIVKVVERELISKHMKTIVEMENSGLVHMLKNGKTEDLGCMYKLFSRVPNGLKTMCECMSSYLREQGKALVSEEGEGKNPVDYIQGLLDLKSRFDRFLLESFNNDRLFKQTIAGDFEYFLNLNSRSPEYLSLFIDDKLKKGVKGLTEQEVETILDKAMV

Kd	Binder
13.8 nM	KLHL3(N), recombinant N-terminal portion of human KLHL3 spanning the BTB and BACK domains (domain or fragment) MEGESVKLSSQTLIQAGDDEKNQRTITVNPAHMGKAFKVMNELRSKQLLCDVMIVAEDVEIEAHRVVLAACSPYFCAMFTGDMSESKAKKIEIKDVDGQTLSKLIDYIYTAEIEVTEENVQVLLPAASLLQLMDVRQNCCDFLQSQLHPTNCLGIRAFADVHTCTDLLQQANAYAEQHFPEVMLGEEFLSLSLDQVCSLISSDKLTVSSEEKVFEAVISWINYEKETRLEHMAKLMEHVRLPLLPRDYLVQTVEEEALIKNNNTCKDFLIEAMKYHLLP
562 nM	Keap1(N), recombinant N-terminal portion of human Keap1 spanning the BTB and BACK domains (domain or fragment) MQPDPRPSGAGACCRFLPLQSQCPEGAGDAVMYASTECKAEVTPSQHGNRTFSYTLEDHTKQAFGIMNELRLSQQLCDVTLQVKYQDAPAAQFMAHKVVLASSSPVFKAMFTNGLREQGMEVVSIEGIHPKVMERLIEFAYTASISMGEKCVLHVMNGAVMYQIDSVVRACSDFLVQQLDPSNAIGIANFAEQIGCVELHQRAREYIYMHFGEVAKQEEFFNLSHCQLVTLISRDDLNVRCESEVFHACINWVKYDCEQRRFYVQALLRAVRCHSLTPNFLQMQLQKCEILQSDSRCKDYLVKIFEELT
